Several values for one entry are separate records, joined by “and”; a condition that tells them apart may be missing. Equal entries are not always repeated.
Biological target: the molecule itself
Assay: cryo-EM 2D classification

B1: α-latrotoxin (natural protein)
chain: EGEDLTLEEKAEICSELELQQKYVDIASNIIGDLSSLPIAGKIAGTIAAAAMTATHVASGRLDIEQTLLGCSDLPFDQIKEVLENRFNEIDRKLDSHSAALEEITKLVEKSISVVEKTRKQMNKRFDEVMKSIQDAKVSPIISKINNFARYFDTEKERIRGLKLNDYILKLEEPNGILLHFKESRTPTDDSLQAPLFSIIEEGYAVPKSIDDELAFKVLYALLYGTQTYVSVMFFLLEQYSFLANHYYEKGYLEKYDEYFNSLNNVFLDFKSSLVGTGTSNNEGLLDRVLQVLMTVKNSEFLGLEKNGVDEMLNEKINLFNKIKEEIEGKQKMTLSETPENFAQISFDKDITTPIGDWRDGREVRYAVQYASETLFSKISHWSDPVSVREKACPTLRMPVDQTRRNVLVFRKFDSSKPQLVGEITPYLSNFIDIDRDLYNAASNPDSAVGFKEFTKLNYDGANIRATFDHGRTVFHAAAKSGNDKIMFGLTFLAKSTELNQPDKKGYTPIHVAADSGNAGIVNLLIQRGVSINSKTYHFLQTPLHLAAQRGFVTTFQRLMESPEININERDKDGFTPLHYAIRGGERILEAFLNQISIDVNAKSNTGLTPFHLAIIKNDWPVASTLLGSKKVDINAVDENNITALHYAAILGYLETTKQLINLKEINANVVSSPGLLSALHYAILYKHDDVASFLMRSSNVNVNLKALGGITPLHLAVIQGRKQILSLMFDIGVNIEQKTDEKYTPLHLAAMSKYPELIQILLDQGSNFEAKTNSGATPLHLATFKGKSQAALILLNNEVNWRDTDENGQMPIHGAAMTGLLDVAQAIISIDATVVDIEDKNSDTPLNLAAQNSHIDVIKYFIDQGADINTRNKKGLAPLLAFSKKGNLDMVKYLFDKNANVYIADNDGMNFFYYAVQNGHLNIVKYAMSEKDKFEWSNTDNNRRDECPNEECAISHFAVCDAVQFDRIEIVKYFVGTLGNFAICGPLHQAARYGHLDIVKYLVEEEFLSVDGSKTDTPLCYASENGHFTVVQYLVSNGAKVNHDCGNGMTAIDKAITKNHLQVVQFLAANGVDFRRKNSRGTTPFLTAVAENALHIAEYLIREKRQDININEQNVDKDTALHLAVYYKNLQMIKLLIKYGIDVTIRNAYDKTALDIAIDAKFSNIVEYLKTKSGKFRR
In the case of B1, the “stoichiometry N” value is reported as 2 and 3 and 4.
